Results: patent US20200317768A1 (published 2020)

Tests used:
Assay in all cases: SPR (Biacore), antibody captured, FcgR analyte
[1] = molecular target: T1, cynomolgus monkey FcγRIIa1 extracellular domain, C-terminal His-tag (cynomolgus monkey)
T1 construct: also called cyno FcγRIIa1; cynoFcgRIIa1
T1 chain: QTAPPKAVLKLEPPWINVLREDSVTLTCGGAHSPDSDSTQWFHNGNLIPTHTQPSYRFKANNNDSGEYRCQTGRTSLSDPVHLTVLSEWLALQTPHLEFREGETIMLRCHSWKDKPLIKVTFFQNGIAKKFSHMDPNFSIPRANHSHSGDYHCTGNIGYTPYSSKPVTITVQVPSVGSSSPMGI

[2] = molecular target: T2, cynomolgus monkey FcγRIIa2 extracellular domain, C-terminal His-tag (cynomolgus monkey)
T2 construct: also called cyno FcγRIIa2; cynoFcgRIIa2
T2 chain: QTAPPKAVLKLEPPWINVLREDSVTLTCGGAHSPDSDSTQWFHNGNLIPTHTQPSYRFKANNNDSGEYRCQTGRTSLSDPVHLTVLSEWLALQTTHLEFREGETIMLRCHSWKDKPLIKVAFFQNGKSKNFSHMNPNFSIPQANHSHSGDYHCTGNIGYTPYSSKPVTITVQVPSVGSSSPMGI

[3] = molecular target: T3, cynomolgus monkey FcγRIIa3 extracellular domain, C-terminal His-tag (cynomolgus monkey)
T3 construct: also called cyno FcγRIIa3; cynoFcgRIIa3
T3 chain: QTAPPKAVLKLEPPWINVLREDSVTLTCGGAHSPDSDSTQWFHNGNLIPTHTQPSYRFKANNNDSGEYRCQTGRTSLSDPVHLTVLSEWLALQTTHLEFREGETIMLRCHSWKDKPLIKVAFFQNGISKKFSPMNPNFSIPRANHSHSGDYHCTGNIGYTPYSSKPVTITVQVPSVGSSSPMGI

[4] = molecular target: T4, cynomolgus monkey FcγRIIb extracellular domain, C-terminal His-tag (cynomolgus monkey)
T4 construct: also called cyno FcγRIIb; cynoFcγRIIb
T4 chain: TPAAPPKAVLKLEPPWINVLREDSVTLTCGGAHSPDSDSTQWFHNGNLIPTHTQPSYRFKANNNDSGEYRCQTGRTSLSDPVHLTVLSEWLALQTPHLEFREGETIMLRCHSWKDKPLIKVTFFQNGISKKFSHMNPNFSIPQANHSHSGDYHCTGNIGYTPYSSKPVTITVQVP

[5] = molecular target: T5, cynomolgus monkey FcγRIIIaS extracellular domain, C-terminal His-tag (cynomolgus monkey, UniProt Q8SPW2 21-206 at identity 1.00))
T5 construct: also called cyno FcγRIIIaS; cynoFcγRIIIaS
T5 chain: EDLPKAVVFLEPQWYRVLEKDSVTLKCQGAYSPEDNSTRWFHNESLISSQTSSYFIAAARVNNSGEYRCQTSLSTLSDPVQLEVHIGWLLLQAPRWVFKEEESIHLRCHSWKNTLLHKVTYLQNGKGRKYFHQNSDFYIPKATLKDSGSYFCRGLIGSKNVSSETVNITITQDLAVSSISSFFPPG

[6] = molecular target: T6, human FcγRIIaH extracellular domain, C-terminal His-tag (human, UniProt P12318 34-217)
T6 construct: also called human FcγRIIa (type H); FcgRIIaH
T6 sequence: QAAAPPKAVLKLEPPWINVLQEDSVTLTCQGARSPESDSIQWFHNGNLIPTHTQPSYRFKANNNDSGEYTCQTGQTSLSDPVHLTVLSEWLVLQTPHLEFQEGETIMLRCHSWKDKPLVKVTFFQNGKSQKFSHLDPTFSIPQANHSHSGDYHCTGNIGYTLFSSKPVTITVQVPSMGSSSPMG

[7] = molecular target: T7, human FcγRIIaR extracellular domain, C-terminal His-tag (human, UniProt P12318 34-217)
T7 construct: also called human FcγRIIa (type R); FcgRIIaR
T7 chain: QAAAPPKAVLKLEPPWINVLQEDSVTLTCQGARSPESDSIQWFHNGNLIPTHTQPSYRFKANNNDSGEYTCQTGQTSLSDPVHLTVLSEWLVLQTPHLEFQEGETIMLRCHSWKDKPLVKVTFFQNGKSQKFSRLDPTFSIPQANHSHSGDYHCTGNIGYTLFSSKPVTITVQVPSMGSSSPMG

[8] = molecular target: T8, human FcγRIIb extracellular domain, C-terminal His-tag (human, UniProt P31994 43-217)
T8 construct: also called human FcgRIIb; FcgRIIb
T8 sequence: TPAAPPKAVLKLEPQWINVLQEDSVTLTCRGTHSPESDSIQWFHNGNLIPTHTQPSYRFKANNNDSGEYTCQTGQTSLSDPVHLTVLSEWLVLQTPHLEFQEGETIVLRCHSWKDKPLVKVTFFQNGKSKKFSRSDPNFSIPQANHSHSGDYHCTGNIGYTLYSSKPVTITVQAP

[9] = molecular target: T9, human FcγRIIIaV extracellular domain, C-terminal His-tag (human, UniProt P08637 17-208)
T9 construct: also called human FcgRIIIaV; FcgRIIIaV
T9 sequence (P08637 17-208 F176V): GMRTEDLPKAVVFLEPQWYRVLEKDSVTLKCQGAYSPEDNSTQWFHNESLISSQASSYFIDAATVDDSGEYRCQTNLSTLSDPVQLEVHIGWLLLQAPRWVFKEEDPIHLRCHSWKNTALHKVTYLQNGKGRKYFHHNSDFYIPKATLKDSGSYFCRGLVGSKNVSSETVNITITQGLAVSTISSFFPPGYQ

- Kd [1]: 1600 nM
- Kd [2]: 1800 nM
- Kd [3]: 48000 nM
- Kd [4]: 460 nM
- Kd [5]: 9300 nM
- Kd [6]: 910 nM
- Kd [7]: 11000 nM
- Kd [8]: 800 nM
- Kd [9]: 27000 nM
B1: M103205H795-MY440/M103202L889-SK1 (antibody, human IgG1, kappa)
heavy: QVTLKESGPVLVKPTETLTLTCTVSGIDLSHDDISWVRQAPGKGLEWVGIISYAGSTYYASWAKGRLTISKDTSKNQVVLTMTNMDPVDTATYYCARGVPAYSHGGDLWGQGTLVTVSSASTKGPSVFPLAPSSKSTSGGTAALGCLVKDYFPEPVTVSWNSGALTSGVHTFPAVLQSSGLYSLSSVVTVPSSSLGTQTYICNVNHKPSNTKVDKKVEPKSCDKTHTCPPCPAPELWNGPSVFLFPPKPKDTLMISRTPEVTCVVVDVSDEDPEVKFNWYVDGVEVHNAKTKPREELYNSTYRVVSVLTVLHQDWLNGKEYKCKVSNKALPKPIEKTISKAKGQPREPQVYTLPPSREEMTKNQVSLTCLVKGFYPSDIAVEWESNGQPENNYKTTPPVLDSDGSFFLYSKLTVDKSRWQQGNVFSCSVMHEALHNHYTQKSLSLSP
light: DIVMTQSPATLSLSPGERATLSCTSSQSVYHANWLSWFQQKPGQPPKLLIYWASTLAYGVPSRFSGSGSGTDFTLTISSLQPEDAATYYCAGGYGGGRYAFGQGTKVEIKRTVAAPSVFIFPPSDEQLKSGTASVVCLLNNFYPREAKVQWKVDNALQSGNSQESVTEQDSKDSTYSLSSTLTLSKADYEKHKVYACEVTHQGLSSPVTKSFNRGEC
notes: Substitutions introduced into M103205H795-SG1; expressed with M103202L889-SK1 as light chain
